Assay results from patent publication US20140179604A1 (U S A REPRESENTED BY THE DEPARTMENT OF VETERANS AFFAIRS, published 2014).
Non-standard residues stand in square brackets, D forms with d. *: point of attachment. Phe(F5) = N[C@@H](Cc1c(F)c(F)c(F)c(F)c1F)C(=O)O; Desaminotyrosyl = O=C(CCc1ccc(O)cc1)*; hArg = N=C(N)NCCCC[C@H](N)C(=O)O; Agmatine = N=C(N)NCCCCN*; Nle = CCCC[C@H](N)C(=O)O; Orn = NCCC[C@H](N)C(=O)O; Abu = CC[C@H](N)C(=O)O; GABA = NCCCC(=O)O

B1: P-23256 [Dat^1, D-Ala^2, Ala^8, Orn^12, Abu^15, Orn^21, Nle^27, Asp^28, Har^30]hGHRH(1-30)NH2 (peptide)
peptide: [Desaminotyrosyl][dA]DAIFTASYR[Orn]VL[Abu]QLSAR[Orn]LLQDI[Nle]DR[hArg]-NH2
SMILES: CCCC[C@H](NC(=O)[C@@H](NC(=O)[C@H](CC(=O)O)NC(=O)[C@H](CCC(N)=O)NC(=O)[C@H](CC(C)C)NC(=O)[C@H](CC(C)C)NC(=O)[C@H](CCCN)NC(=O)[C@H](CCCNC(=N)N)NC(=O)[C@H](C)NC(=O)[C@H](CO)NC(=O)[C@H](CC(C)C)NC(=O)[C@H](CCC(N)=O)NC(=O)[C@H](CC)NC(=O)[C@H](CC(C)C)NC(=O)[C@@H](NC(=O)[C@H](CCCN)NC(=O)[C@H](CCCNC(=N)N)NC(=O)[C@H](Cc1ccc(O)cc1)NC(=O)[C@H](CO)NC(=O)[C@H](C)NC(=O)[C@@H](NC(=O)[C@H](Cc1ccccc1)NC(=O)[C@@H](NC(=O)[C@H](C)NC(=O)[C@H](CC(=O)O)NC(=O)[C@@H](C)NC(=O)CCc1ccc(O)cc1)[C@@H](C)CC)[C@@H](C)O)C(C)C)[C@@H](C)CC)C(=O)N[C@@H](CC(=O)O)C(=O)N[C@@H](CCCNC(=N)N)C(=O)N[C@@H](CCCCNC(=N)N)C(N)=O
notes: also called Peptide 23256
B2: P-25502 [Dat^1, D-Ala^2, Fpa5^6, Orn^12, Abu^15, Orn^21, Nle^27, Gab^30]hGHRH(1-30)NH2 (peptide)
peptide: [Desaminotyrosyl][dA]DAI[Phe(F5)]TNSYR[Orn]VL[Abu]QLSAR[Orn]LLQDI[Nle]SR[GABA]-NH2
SMILES: CCCC[C@H](NC(=O)[C@@H](NC(=O)[C@H](CC(=O)O)NC(=O)[C@H](CCC(N)=O)NC(=O)[C@H](CC(C)C)NC(=O)[C@H](CC(C)C)NC(=O)[C@H](CCCN)NC(=O)[C@H](CCCNC(=N)N)NC(=O)[C@H](C)NC(=O)[C@H](CO)NC(=O)[C@H](CC(C)C)NC(=O)[C@H](CCC(N)=O)NC(=O)[C@H](CC)NC(=O)[C@H](CC(C)C)NC(=O)[C@@H](NC(=O)[C@H](CCCN)NC(=O)[C@H](CCCNC(=N)N)NC(=O)[C@H](Cc1ccc(O)cc1)NC(=O)[C@H](CO)NC(=O)[C@H](CC(N)=O)NC(=O)[C@@H](NC(=O)[C@H](Cc1c(F)c(F)c(F)c(F)c1F)NC(=O)[C@@H](NC(=O)[C@H](C)NC(=O)[C@H](CC(=O)O)NC(=O)[C@@H](C)NC(=O)CCc1ccc(O)cc1)[C@@H](C)CC)[C@@H](C)O)C(C)C)[C@@H](C)CC)C(=O)N[C@@H](CO)C(=O)N[C@@H](CCCNC(=N)N)C(=O)NCCCC(N)=O
notes: also called MR-502; Peptide 25502
B3: P-20350 [Dat^1, D-Ala^2, Gln^8, Orn^12, Abu^15, Orn^21, Nle^27, Asp^28, Agm^29]hGHRH(1-29)NH2 (peptide)
peptide: [Desaminotyrosyl][dA]DAIFTQSYR[Orn]VL[Abu]QLSAR[Orn]LLQDI[Nle]D[Agmatine]
SMILES: CCCC[C@H](NC(=O)[C@@H](NC(=O)[C@H](CC(=O)O)NC(=O)[C@H](CCC(N)=O)NC(=O)[C@H](CC(C)C)NC(=O)[C@H](CC(C)C)NC(=O)[C@H](CCCN)NC(=O)[C@H](CCCNC(=N)N)NC(=O)[C@H](C)NC(=O)[C@H](CO)NC(=O)[C@H](CC(C)C)NC(=O)[C@H](CCC(N)=O)NC(=O)[C@H](CC)NC(=O)[C@H](CC(C)C)NC(=O)[C@@H](NC(=O)[C@H](CCCN)NC(=O)[C@H](CCCNC(=N)N)NC(=O)[C@H](Cc1ccc(O)cc1)NC(=O)[C@H](CO)NC(=O)[C@H](CCC(N)=O)NC(=O)[C@@H](NC(=O)[C@H](Cc1ccccc1)NC(=O)[C@@H](NC(=O)[C@H](C)NC(=O)[C@H](CC(=O)O)NC(=O)[C@@H](C)NC(=O)CCc1ccc(O)cc1)[C@@H](C)CC)[C@@H](C)O)C(C)C)[C@@H](C)CC)C(=O)N[C@@H](CC(=O)O)C(=O)NCCCCNC(=N)N
notes: also called Peptide 20350; MR-350
B4: P-29702 [Dat^1, D-Ala^2, Orn^12, Abu^15, Orn^21, Nle^27, Gln-Gab^30]hGHRH(1-30)NH2 (peptide)
peptide: [Desaminotyrosyl][dA]DAIFTNSYR[Orn]VL[Abu]QLSAR[Orn]LLQDI[Nle]SRQ[GABA]-NH2
SMILES: CCCC[C@H](NC(=O)[C@@H](NC(=O)[C@H](CC(=O)O)NC(=O)[C@H](CCC(N)=O)NC(=O)[C@H](CC(C)C)NC(=O)[C@H](CC(C)C)NC(=O)[C@H](CCCN)NC(=O)[C@H](CCCNC(=N)N)NC(=O)[C@H](C)NC(=O)[C@H](CO)NC(=O)[C@H](CC(C)C)NC(=O)[C@H](CCC(N)=O)NC(=O)[C@H](CC)NC(=O)[C@H](CC(C)C)NC(=O)[C@@H](NC(=O)[C@H](CCCN)NC(=O)[C@H](CCCNC(=N)N)NC(=O)[C@H](Cc1ccc(O)cc1)NC(=O)[C@H](CO)NC(=O)[C@H](CC(N)=O)NC(=O)[C@@H](NC(=O)[C@H](Cc1ccccc1)NC(=O)[C@@H](NC(=O)[C@H](C)NC(=O)[C@H](CC(=O)O)NC(=O)[C@@H](C)NC(=O)CCc1ccc(O)cc1)[C@@H](C)CC)[C@@H](C)O)C(C)C)[C@@H](C)CC)C(=O)N[C@@H](CO)C(=O)N[C@@H](CCCNC(=N)N)C(=O)N[C@@H](CCC(N)=O)C(=O)NCCCC(N)=O
notes: also called MR-702; Peptide 29702
B5: JI-38 [Dat^1, Gln^8, Orn^12,21, Abu^15, Nle^27, Asp^28, Agm^29]hGHRH(1-29)NH2 (peptide)
peptide: [Desaminotyrosyl]ADAIFTQSYR[Orn]VL[Abu]QLSAR[Orn]LLQDI[Nle]D[Agmatine]
SMILES: CCCC[C@H](NC(=O)[C@@H](NC(=O)[C@H](CC(=O)O)NC(=O)[C@H](CCC(N)=O)NC(=O)[C@H](CC(C)C)NC(=O)[C@H](CC(C)C)NC(=O)[C@H](CCCN)NC(=O)[C@H](CCCNC(=N)N)NC(=O)[C@H](C)NC(=O)[C@H](CO)NC(=O)[C@H](CC(C)C)NC(=O)[C@H](CCC(N)=O)NC(=O)[C@H](CC)NC(=O)[C@H](CC(C)C)NC(=O)[C@@H](NC(=O)[C@H](CCCN)NC(=O)[C@H](CCCNC(=N)N)NC(=O)[C@H](Cc1ccc(O)cc1)NC(=O)[C@H](CO)NC(=O)[C@H](CCC(N)=O)NC(=O)[C@@H](NC(=O)[C@H](Cc1ccccc1)NC(=O)[C@@H](NC(=O)[C@H](C)NC(=O)[C@H](CC(=O)O)NC(=O)[C@H](C)NC(=O)CCc1ccc(O)cc1)[C@@H](C)CC)[C@@H](C)O)C(C)C)[C@@H](C)CC)C(=O)N[C@@H](CC(=O)O)C(=O)NCCCCNC(=N)N
notes: Non-coded residues replacing another residue are written X

Key:
[1] = biological target: T1, GHRH receptor (membrane receptors of human anterior pituitary cells) (human) (UniProt Q02643); assay: competition with [His1,125I-Tyr10,Nle27]hGHRH(1-32)NH2, human pituitary membranes
T1 sequence (looked up): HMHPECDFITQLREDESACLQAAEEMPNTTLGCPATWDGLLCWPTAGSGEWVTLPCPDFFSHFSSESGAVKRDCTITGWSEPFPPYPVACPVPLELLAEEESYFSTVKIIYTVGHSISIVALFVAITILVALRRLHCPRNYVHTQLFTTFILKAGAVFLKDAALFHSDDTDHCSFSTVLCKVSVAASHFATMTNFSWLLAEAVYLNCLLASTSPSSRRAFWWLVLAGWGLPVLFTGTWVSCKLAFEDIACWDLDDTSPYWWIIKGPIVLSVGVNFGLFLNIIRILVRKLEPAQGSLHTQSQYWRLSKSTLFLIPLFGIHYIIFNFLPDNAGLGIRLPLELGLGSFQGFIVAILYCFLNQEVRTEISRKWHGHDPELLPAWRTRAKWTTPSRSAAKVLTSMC

[2] = biological target: T2, GHRH receptor (membrane receptors of human anterior pituitary cells) (human, UniProt Q02643 23-423); assay: as above
T2 construct: whole, on cells; Native receptor in a membrane fraction of purchased normal human pituitaries, not intact cells; also called hGHRH receptor; human pituitary membrane homogenates
T2 sequence (looked up): T1 sequence (looked up)
Text: Normal human pituitaries were purchased from the National Hormone and Peptide Program (A. F. Parlow, Los Angeles, County Harbor—UCLA Medical Center, Torrance, Calif.).

[3] = biological target: T2, GHRH receptor (membrane receptors of …); assay: competition with 125I-JV-1-42, human pituitary membranes
Text: (§1) Normal human pituitaries were purchased from the National Hormone and Peptide Program (A. F. Parlow, Los Angeles, County Harbor-UCLA Medical Center, Torrance, Calif.).

[4] = biological target: T2, GHRH receptor (membrane receptors of …); assay: competition with 125I-[His1,Nle27]hGHRH(1-32)NH2, human pituitary membranes
[5] = biological target: T2, GHRH receptor (membrane receptors of …); assay: competition with 125I-JV-1-42, human pituitary membranes; remark: listed apart in the source
Experimental: as §1
The final binding affinities were expressed as IC₅₀ values and were calculated by using the LIGAND PC computerized curve-fitting program of Munson and Rodbard as modified by McPherson.

Molecule | IC50 [1] [nM] | Relative affinity (Binding potency) vs GHRH (GHRH(1-29) = 1) [1] | IC50 [2] [nM] | Relative affinity (Binding potency) vs GHRH [2] | Relative affinity (Binding potency) vs JI-38 [2] [JI-38 = 1] | IC50 [3] [nM] | Relative affinity (Binding potency) vs JI-38 [3] [JI-38 = 1] | IC50 [4] [nM] | Relative affinity (Binding potency) compared to JI-38 [4] [JI-38 = 1] | Relative affinity (Binding potency) compared to hGHRH(1-29) [4] | IC50 [5] [nM] | Relative affinity (Binding potency) vs GHRH [5] | Relative affinity (Binding potency) vs JI-38 [5] [JI-38 = 1]
JI-34 (peptide) | 1.37 | 4.32 | – | – | – | – | – | – | – | – | – | – | –
JI-36 (peptide) | 1.82 | 3.25 | – | – | – | – | – | – | – | – | – | – | –
B1 | – | – | 0.04 | 148 GHRH(1-29) = 1 | 48.7 | – | – | – | – | – | – | – | –
B2 | – | – | – | – | – | 0.33 | 13.2 | 2.16 | 1.27 | 3.54 hGHRH(1-29)NH2 = 1 | 0.07 | 58 GHRH(1-29) = 1 | 24.4
B3 | – | – | – | – | – | 0.52 | 8.37 | – | – | – | 0.04 | 102 GHRH(1-29) = 1 | 42.7
B4 | – | – | – | – | – | 0.86 | 5.06 | 3.3 | 0.83 | 2.31 hGHRH(1-29)NH2 = 1 | 0.05 | 81.2 GHRH(1-29) = 1 | 34.2
B5 | – | – | 1.95 | 3.03 GHRH(1-29) = 1 | 1 | 4.35 | 1 | 2.74 | 1 | 2.79 hGHRH(1-29)NH2 = 1 | 1.71 | 2.4 GHRH(1-29) = 1 | 1
